From PMC6013234

Biological target: T1, DENR (in DENR-MCTS1 complex, coexpressed);MCTS1 (in DENR-MCTS1 complex, coexpressed) (human;human) (UniProt O43583+Q9ULC4)
T1 sequence 1: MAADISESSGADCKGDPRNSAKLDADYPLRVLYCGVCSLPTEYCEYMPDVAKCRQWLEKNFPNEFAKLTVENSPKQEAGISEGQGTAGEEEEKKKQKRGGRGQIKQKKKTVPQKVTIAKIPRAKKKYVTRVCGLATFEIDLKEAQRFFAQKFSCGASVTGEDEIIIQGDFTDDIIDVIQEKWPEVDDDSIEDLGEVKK
T1 sequence 2: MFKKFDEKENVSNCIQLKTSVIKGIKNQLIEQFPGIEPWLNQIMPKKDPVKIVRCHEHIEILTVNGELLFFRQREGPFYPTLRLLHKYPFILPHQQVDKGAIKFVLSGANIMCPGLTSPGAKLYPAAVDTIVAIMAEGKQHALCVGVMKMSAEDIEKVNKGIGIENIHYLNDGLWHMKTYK
Assay: EMSA
Conditions: Scatchard, 5 replicates; general value, per-tRNA Kd only in S3E' Fig; 50 mM Tris pH 7.5, 150 mM NaCl, 15 mM imidazole (protein eluted in 300 mM imidazole, 2 mM DTT added), protein 0.25-16 uM, RNA 1 uM (3 uM yeast tRNA mix), 30 min

## tRNA, species not specified in text
  Kd: 1500 nM
